We go through 47 sequences from the supplement of paper PMC10724198.

± gives the standard deviation of the averaged measurements.

The series concerns Saccharomyces cerevisiae. In words: protein stability index of tFT-peptide fusion (C-terminal peptide) (PSI (0-1 scale)); higher = more stable (slower turnover). The conditions noted are these: temperature: 30 C. As to the method: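 MPS profiling in S. cerevisiae of the yeast C-terminome library: the last 12 aa of each annotated ORF are fused to the C-terminus of a sfGFP-mCherry timer, after a GGGS linker. Cells are FACS-sorted into 8 mCherry/sfGFP bins and deep-sequenced. PSI runs from 0 (unstable) to 1 (stable); wild type and das1Δ backgrounds, two technical replicates each.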

[1] abbreviates: genetic background: das1 deletion.

Consider VLNFFKRRSMRV [KIN4 C-terminal 12 aa], for which the protein stability index runs as follows: under setting [1], 0.625 ± 0.013; (genetic background: wild type) 0.634 ± 0.084.

Consider VLSVISAVFGLI [PLB1 C-terminal 12 aa], for which the protein stability index runs as follows: under setting [1], 0.674 ± 0.016; (genetic background: wild type) 0.672 ± 0.045.

Consider VLTAGVNSVAIK [RPN11 C-terminal 12 aa], for which the protein stability index reads like this: under setting [1], 0.6646 ± 0.0021; (genetic background: wild type) 0.63 ± 0.0097.

Consider VLVCFQTFILLQ [YDL032W C-terminal 12 aa], for which the protein stability index is, setting by setting: under setting [1], 0.152 ± 0.012; (genetic background: wild type) 0.162 ± 0.0082.

VMLFSSNHQALG [MAG2 C-terminal 12 aa]: the protein stability index was 0.704 ± 0.014 under setting [1] and 0.693 ± 0.014 (genetic background: wild type).

Turning to VNFDIEEEQEGQ [JJJ3 C-terminal 12 aa], the protein stability index runs as follows: under setting [1], 0.685 ± 0.011; (genetic background: wild type) 0.791 ± 0.071.

Take VRKGQEKSKKHS [SEI1 C-terminal 12 aa]: the protein stability index is 0.678 ± 0.01 under setting [1] and 0.737 ± 0.06 (genetic background: wild type).

Regarding VRVPKKSKKLKK [PDR10 C-terminal 12 aa], the protein stability index runs as follows: under setting [1], 0.7169 ± 0.0069; (genetic background: wild type) 0.705 ± 0.012.

The sequence VSKELRSRDLLD [RPE1 C-terminal 12 aa] had a protein stability index under setting [1] of 0.68 ± 0.027 and a protein stability index (genetic background: wild type) of 0.699 ± 0.0075.

As for VSNNLIIDEETF [BIM1 C-terminal 12 aa], the protein stability index reads like this: under setting [1], 0.7174 ± 0.0056; (genetic background: wild type) 0.7214 ± 0.0042.

On to VSSLRKHGEHYS [TRM82 C-terminal 12 aa], for which the protein stability index is, setting by setting: under setting [1], 0.704 ± 0.021; (genetic background: wild type) 0.6079 ± 0.0053.

For VTSIMDMPISRE [MVP1 C-terminal 12 aa], the protein stability index reads like this: under setting [1], 0.685 ± 0.019; (genetic background: wild type) 0.684 ± 0.019.

The sequence VTSKSALESIFP [YGP1 C-terminal 12 aa] gave a protein stability index under setting [1] of 0.73 ± 0.0083 and a protein stability index (genetic background: wild type) of 0.678 ± 0.031.

Turning to VVLSYSMVGSVM [MAY24 C-terminal 12 aa], the protein stability index by setting is: under setting [1], 0.4645 ± 0.0021; (genetic background: wild type) 0.474 ± 0.026.

Consider VVVCRLHFSLPV [YKL111C C-terminal 12 aa], for which the protein stability index turned out to be 0.562 ± 0.0059 under setting [1] and 0.57 ± 0.012 (genetic background: wild type).

VVYYHMVCKNIT [YHR125W C-terminal 12 aa]: the protein stability index reads like this: under setting [1], 0.5662 ± 0.0017; (genetic background: wild type) 0.573 ± 0.038.

Consider VWNTFYKLGKRV [TMT1 C-terminal 12 aa], for which the protein stability index runs as follows: under setting [1], 0.7048 ± 0.0066; (genetic background: wild type) 0.6583 ± 0.0029.

In the case of VYDYQYIYKGKQ [SIA1 C-terminal 12 aa], the protein stability index under setting [1] turned out to be 0.701 ± 0.016 and the protein stability index (genetic background: wild type) turned out to be 0.698 ± 0.016.

Take VYTSKTRYRFAV [YHR210C C-terminal 12 aa]: the protein stability index came out at 0.7137 ± 0.0024 under setting [1] and 0.578 ± 0.012 (genetic background: wild type).

Turning to WEHLHSGFSKNK [ELG1 C-terminal 12 aa], the protein stability index under setting [1] was 0.723 ± 0.012 and the protein stability index (genetic background: wild type) stood at 0.716 ± 0.019.

Take WKKFLKFSKGSD [HXT17 C-terminal 12 aa]: the protein stability index is, setting by setting: under setting [1], 0.696 ± 0.0084; (genetic background: wild type) 0.703 ± 0.099.

As to WKQGGGDFRTKK [RBA50 C-terminal 12 aa], the protein stability index runs as follows: under setting [1], 0.709 ± 0.022; (genetic background: wild type) 0.667 ± 0.033.

As for WLDCTTLPNYQG [KAP122 C-terminal 12 aa], the protein stability index under setting [1] was 0.7222 ± 0.0061 and the protein stability index (genetic background: wild type) came to 0.707 ± 0.028.

Take WNLQTLAADDAF [RPB11 C-terminal 12 aa]: the protein stability index reads like this: under setting [1], 0.765 ± 0.03; (genetic background: wild type) 0.729 ± 0.049.

Consider “WYNPSNQTYKSK [YLR222C-A C-terminal 12 aa]”, for which the protein stability index came out at 0.719 ± 0.038 under setting [1] and 0.727 ± 0.071 (genetic background: wild type).

The sequence YAVSELEGPMLD [CSC1 C-terminal 12 aa] displayed a protein stability index under setting [1] of 0.7 ± 0.016 and a protein stability index (genetic background: wild type) of 0.6479 ± 0.0011.

In the case of YCLFEKPTETTN [ALG9 C-terminal 12 aa], the protein stability index was 0.736 ± 0.029 under setting [1] and 0.695 ± 0.061 (genetic background: wild type).

In the case of YDYNSKNSRGFY [DEF1 C-terminal 12 aa], the protein stability index under setting [1] turned out to be 0.6999 ± 0.0051 and the protein stability index (genetic background: wild type) was 0.676 ± 0.033.

Regarding YFKETLYKLANE [HIS5 C-terminal 12 aa], the protein stability index is 0.687 ± 0.023 under setting [1] and 0.705 ± 0.085 (genetic background: wild type).

As for YFLAERERINNH [PEX4 C-terminal 12 aa], the protein stability index reads like this: under setting [1], 0.721 ± 0.0079; (genetic background: wild type) 0.694 ± 0.01.

On to YGCIALTVVFIL [YAR069C C-terminal 12 aa], for which the protein stability index stood at 0.232 ± 0.0061 under setting [1] and 0.223 ± 0.0052 (genetic background: wild type).

Consider YISKAGSYEVRY [APM4 C-terminal 12 aa], for which the protein stability index under setting [1] was determined as 0.68349 ± 0.00019 and the protein stability index (genetic background: wild type) was 0.666 ± 0.03.

Turning to YKASGSYLEKYF [YPK3 C-terminal 12 aa], the protein stability index is 0.7123 ± 0.0023 under setting [1] and 0.6863 ± 0.00092 (genetic background: wild type).

As for YKKVQWAKVLEQ [SFG1 C-terminal 12 aa], the protein stability index under setting [1] is 0.709 ± 0.022 and the protein stability index (genetic background: wild type) was determined as 0.7255 ± 0.0061.

Turning to YKLFKFLTRERS [BNA4 C-terminal 12 aa], the protein stability index runs as follows: under setting [1], 0.7081 ± 0.0051; (genetic background: wild type) 0.657 ± 0.018.

The sequence YKNKVGVGIPFI [STE14 C-terminal 12 aa] had a protein stability index under setting [1] of 0.728 ± 0.019 and a protein stability index (genetic background: wild type) of 0.7065 ± 0.0057.

For YKQVSSHNSHSQ [CUP2 C-terminal 12 aa], the protein stability index came to 0.68 ± 0.034 under setting [1] and 0.691 ± 0.014 (genetic background: wild type).

With YLEAFQWLSQYI [SAR1 C-terminal 12 aa], the protein stability index amounted to 0.7969 ± 0.0076 under setting [1] and 0.7631 ± 0.0025 (genetic background: wild type).

YLLGIYRDNKKC [ALG5 C-terminal 12 aa] showed a protein stability index under setting [1] of 0.727 ± 0.0028 and a protein stability index (genetic background: wild type) of 0.6693 ± 0.0016.

As for YNINHRKSVNSV [TDA9 C-terminal 12 aa], the protein stability index worked out at 0.706 ± 0.0094 under setting [1] and 0.6634 ± 0.0026 (genetic background: wild type).

Take YNSELVATKDIQ [PNT1 C-terminal 12 aa]: the protein stability index worked out at 0.703 ± 0.012 under setting [1] and 0.7242 ± 0.0066 (genetic background: wild type).

With “YSELCIIVGTYY [YDR003W-A C-terminal 12 aa]”, the protein stability index runs as follows: under setting [1], 0.431 ± 0.012; (genetic background: wild type) 0.439 ± 0.036.

Turning to YSLYRSRSKEAF [SAP190 C-terminal 12 aa], the protein stability index stood at 0.714 ± 0.048 under setting [1] and 0.692 ± 0.0071 (genetic background: wild type).

On to YVRFYRGKLNNP [YOL036W C-terminal 12 aa], for which the protein stability index under setting [1] amounted to 0.704 ± 0.022 and the protein stability index (genetic background: wild type) stood at 0.7 ± 0.024.

With YWALGVALTGSK [YDR417C C-terminal 12 aa], the protein stability index came out at 0.6933 ± 0.0046 under setting [1] and 0.693 ± 0.029 (genetic background: wild type).

YWRKQYPDADLP [YAR028W C-terminal 12 aa]: the protein stability index under setting [1] amounted to 0.714 ± 0.015 and the protein stability index (genetic background: wild type) is 0.695 ± 0.033.

Regarding “YYNLKNCITSET [YHR050W-A C-terminal 12 aa]”, the protein stability index is, setting by setting: under setting [1], 0.661 ± 0.007; (genetic background: wild type) 0.6465 ± 0.0017.
